Data as given in the Human Domainome abundance scans (Beltran et al. 2025).
± gives the uncertainty stated by the source.

B1: E3 ubiquitin-protein ligase Midline-1, residues 172 to 214; numbered along this chain, O15344 (parent)
chain: GLMCLEHEDEKVNMYCVTDDQLICALCKLVGRHRDHQVAALSE

Variants of: B1
Experiment: abundance fitness (aPCA) (normalised: wild type 0, dead -1); higher = more abundant; growth selection in yeast, the domain comes from the species named
Conditions: Homo sapiens
In the case of GLMCLEHEDEKVNVYCVTDDQLICALCKLVGRHRDHQVAALSE [M14V], the abundance fitness is reported as -0.386 ± 0.064. With GLMCLEHEDEKVNWYCVTDDQLICALCKLVGRHRDHQVAALSE [M14W] the abundance fitness was -0.055 ± 0.056. GLMCLEHEDEKVNAYCVTDDQLICALCKLVGRHRDHQVAALSE [M14A] gave an abundance fitness of 0.043 ± 0.048. In the case of GLMCLEHEDEKVNEYCVTDDQLICALCKLVGRHRDHQVAALSE [M14E], the abundance fitness is reported as 0.176 ± 0.055. Variant GLMCLEHEDEKVNNYCVTDDQLICALCKLVGRHRDHQVAALSE [M14N] has an abundance fitness of -0.028 ± 0.18. Variant GLMCLEHEDEKVNPYCVTDDQLICALCKLVGRHRDHQVAALSE [M14P] has an abundance fitness of -0.405 ± 0.075. For GLMCLEHEDEKVNKYCVTDDQLICALCKLVGRHRDHQVAALSE [M14K], the abundance fitness was 0.121 ± 0.21. In the case of GLMCLEHEDEKVNDYCVTDDQLICALCKLVGRHRDHQVAALSE [M14D], the abundance fitness is reported as 0.09 ± 0.12. GLMCLEHEDEKVNCYCVTDDQLICALCKLVGRHRDHQVAALSE [M14C] gave an abundance fitness of 0.137 ± 0.11. Variant GLMCLEHEDEKVNHYCVTDDQLICALCKLVGRHRDHQVAALSE [M14H] has an abundance fitness of -0.112 ± 0.3. Variant GLMCLEHEDEKVNTYCVTDDQLICALCKLVGRHRDHQVAALSE [M14T] has an abundance fitness of 0.301 ± 0.084. With GLMCLEHEDEKVNRYCVTDDQLICALCKLVGRHRDHQVAALSE [M14R] the abundance fitness was 0.033 ± 0.055. Work on GLMCLEHEDEKVNQYCVTDDQLICALCKLVGRHRDHQVAALSE [M14Q] yielded an abundance fitness of 0.242 ± 0.066. GLMCLEHEDEKVNSYCVTDDQLICALCKLVGRHRDHQVAALSE [M14S] gave an abundance fitness of 0.267 ± 0.065. GLMCLEHEDEKVNLYCVTDDQLICALCKLVGRHRDHQVAALSE [M14L] showed an abundance fitness of -0.022 ± 0.055. Work on GLMCLEHEDEKVDMYCVTDDQLICALCKLVGRHRDHQVAALSE [N13D] yielded an abundance fitness of -0.071 ± 0.092. With GLMCLEHEDEKVPMYCVTDDQLICALCKLVGRHRDHQVAALSE [N13P] the abundance fitness was -0.567 ± 0.28. GLMCLEHEDEKVYMYCVTDDQLICALCKLVGRHRDHQVAALSE [N13Y] gave an abundance fitness of -0.108 ± 0.16. For GLMCLEHEDEKVCMYCVTDDQLICALCKLVGRHRDHQVAALSE [N13C], the abundance fitness was -0.13 ± 0.1. Variant GLMCLEHEDEKVSMYCVTDDQLICALCKLVGRHRDHQVAALSE [N13S] has an abundance fitness of -0.345 ± 0.095. Work on GLMCLEHEDEKVVMYCVTDDQLICALCKLVGRHRDHQVAALSE [N13V] yielded an abundance fitness of -0.396 ± 0.055. Variant GLMCLEHEDEKVFMYCVTDDQLICALCKLVGRHRDHQVAALSE [N13F] has an abundance fitness of 0.354 ± 0.19. With GLMCLEHEDEKVTMYCVTDDQLICALCKLVGRHRDHQVAALSE [N13T] the abundance fitness was -0.043 ± 0.11. Work on GLMCLEHEDEKVQMYCVTDDQLICALCKLVGRHRDHQVAALSE [N13Q] yielded an abundance fitness of 0.005 ± 0.078. Variant GLMCLEHEDEKVLMYCVTDDQLICALCKLVGRHRDHQVAALSE [N13L] has an abundance fitness of -0.254 ± 0.077. In the case of GLMCLEHEDEKVAMYCVTDDQLICALCKLVGRHRDHQVAALSE [N13A], the abundance fitness is reported as -0.146 ± 0.055. Variant GLMCLEHEDEKVKMYCVTDDQLICALCKLVGRHRDHQVAALSE [N13K] has an abundance fitness of 0.04 ± 0.071. Variant GLMCLEHEDEKVRMYCVTDDQLICALCKLVGRHRDHQVAALSE [N13R] has an abundance fitness of -0.137 ± 0.049. For GLMCLEHEDEKVEMYCVTDDQLICALCKLVGRHRDHQVAALSE [N13E], the abundance fitness was -0.084 ± 0.063. Work on GLMCLEHEDEKVGMYCVTDDQLICALCKLVGRHRDHQVAALSE [N13G] yielded an abundance fitness of -0.022 ± 0.045. Work on GLMCLEHEDEKQNMYCVTDDQLICALCKLVGRHRDHQVAALSE [V12Q] yielded an abundance fitness of 0.328 ± 0.2. Work on GLMCLEHEDEKRNMYCVTDDQLICALCKLVGRHRDHQVAALSE [V12R] yielded an abundance fitness of 0.024 ± 0.059. With GLMCLEHEDEKENMYCVTDDQLICALCKLVGRHRDHQVAALSE [V12E] the abundance fitness was -0.122 ± 0.075. With GLMCLEHEDEKYNMYCVTDDQLICALCKLVGRHRDHQVAALSE [V12Y] the abundance fitness was -0.02 ± 0.16. In the case of GLMCLEHEDEKLNMYCVTDDQLICALCKLVGRHRDHQVAALSE [V12L], the abundance fitness is reported as -0.233 ± 0.11. GLMCLEHEDEKINMYCVTDDQLICALCKLVGRHRDHQVAALSE [V12I] gave an abundance fitness of 0.093 ± 0.17. GLMCLEHEDEKTNMYCVTDDQLICALCKLVGRHRDHQVAALSE [V12T] showed an abundance fitness of -0.149 ± 0.081. With GLMCLEHEDEKMNMYCVTDDQLICALCKLVGRHRDHQVAALSE [V12M] the abundance fitness was -0.042 ± 0.12. With GLMCLEHEDEKFNMYCVTDDQLICALCKLVGRHRDHQVAALSE [V12F] the abundance fitness was 0.301 ± 0.3. In the case of GLMCLEHEDEKWNMYCVTDDQLICALCKLVGRHRDHQVAALSE [V12W], the abundance fitness is reported as -0.251 ± 0.095. In the case of GLMCLEHEDEKKNMYCVTDDQLICALCKLVGRHRDHQVAALSE [V12K], the abundance fitness is reported as 0.319 ± 0.14. GLMCLEHEDEKPNMYCVTDDQLICALCKLVGRHRDHQVAALSE [V12P] showed an abundance fitness of -0.51 ± 0.34. With GLMCLEHEDEKGNMYCVTDDQLICALCKLVGRHRDHQVAALSE [V12G] the abundance fitness was 0.026 ± 0.048. For GLMCLEHEDEKVNMYQVTDDQLICALCKLVGRHRDHQVAALSE [C16Q], the abundance fitness was -0.219 ± 0.076. Variant GLMCLEHEDEKVNMYWVTDDQLICALCKLVGRHRDHQVAALSE [C16W] has an abundance fitness of -1.19 ± 0.21. With GLMCLEHEDEKVNMYMVTDDQLICALCKLVGRHRDHQVAALSE [C16M] the abundance fitness was -0.674 ± 0.43. GLMCLEHEDEKVNMYGVTDDQLICALCKLVGRHRDHQVAALSE [C16G] gave an abundance fitness of -0.291 ± 0.049. GLMCLEHEDEKVNMYKVTDDQLICALCKLVGRHRDHQVAALSE [C16K] gave an abundance fitness of -0.298 ± 0.18. In the case of GLMCLEHEDEKVNMYHVTDDQLICALCKLVGRHRDHQVAALSE [C16H], the abundance fitness is reported as -0.215 ± 0.12. GLMCLEHEDEKVNMYYVTDDQLICALCKLVGRHRDHQVAALSE [C16Y] gave an abundance fitness of -0.624 ± 0.28. GLMCLEHEDEKVNMYEVTDDQLICALCKLVGRHRDHQVAALSE [C16E] gave an abundance fitness of -0.185 ± 0.065. GLMCLEHEDEKVNMYAVTDDQLICALCKLVGRHRDHQVAALSE [C16A] showed an abundance fitness of -0.569 ± 0.087. For GLMCLEHEDEKVNMYPVTDDQLICALCKLVGRHRDHQVAALSE [C16P], the abundance fitness was -0.289 ± 0.065. Work on GLMCLEHEDEKVNMYNVTDDQLICALCKLVGRHRDHQVAALSE [C16N] yielded an abundance fitness of -0.183 ± 0.14. Work on GLMCLEHEDEKVNMYVVTDDQLICALCKLVGRHRDHQVAALSE [C16V] yielded an abundance fitness of -0.725 ± 0.096. Variant GLMCLEHEDEKVNMYTVTDDQLICALCKLVGRHRDHQVAALSE [C16T] has an abundance fitness of -0.351 ± 0.1. For GLMCLEHEDEKVNMYSVTDDQLICALCKLVGRHRDHQVAALSE [C16S], the abundance fitness was -0.14 ± 0.11. In the case of GLMCLEHEDEKVNMYIVTDDQLICALCKLVGRHRDHQVAALSE [C16I], the abundance fitness is reported as -0.127 ± 0.24. For GLMCLEHEDEKVNMYRVTDDQLICALCKLVGRHRDHQVAALSE [C16R], the abundance fitness was -0.469 ± 0.062.
